These results are taken from patent publication US20180237480A1 (UNIVERSITY OF EDINBURGH, published 2018).

The target of one test is T1, human fibrinogen (human, UniProt P02671 20-629; P02675 31-491; P02679 27-437).
T1 construct: The three chains are general knowledge about fibrinogen; also called human Fg
T1 sequence 1: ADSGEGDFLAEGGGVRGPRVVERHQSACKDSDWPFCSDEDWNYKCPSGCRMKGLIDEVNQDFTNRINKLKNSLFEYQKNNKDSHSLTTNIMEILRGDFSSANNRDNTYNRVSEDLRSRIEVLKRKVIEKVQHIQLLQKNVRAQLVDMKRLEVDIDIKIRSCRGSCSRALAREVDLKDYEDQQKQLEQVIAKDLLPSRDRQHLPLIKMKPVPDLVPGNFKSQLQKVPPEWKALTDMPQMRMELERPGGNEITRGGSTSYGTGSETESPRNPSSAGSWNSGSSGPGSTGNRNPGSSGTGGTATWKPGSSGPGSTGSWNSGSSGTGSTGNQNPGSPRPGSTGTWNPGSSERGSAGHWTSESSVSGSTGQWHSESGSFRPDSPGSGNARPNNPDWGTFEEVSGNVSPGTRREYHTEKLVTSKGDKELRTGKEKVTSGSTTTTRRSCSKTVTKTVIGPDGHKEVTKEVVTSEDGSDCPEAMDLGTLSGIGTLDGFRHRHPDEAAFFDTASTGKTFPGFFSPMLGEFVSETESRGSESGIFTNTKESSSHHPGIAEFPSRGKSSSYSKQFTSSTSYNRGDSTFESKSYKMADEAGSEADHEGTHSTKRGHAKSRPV
T1 sequence 2: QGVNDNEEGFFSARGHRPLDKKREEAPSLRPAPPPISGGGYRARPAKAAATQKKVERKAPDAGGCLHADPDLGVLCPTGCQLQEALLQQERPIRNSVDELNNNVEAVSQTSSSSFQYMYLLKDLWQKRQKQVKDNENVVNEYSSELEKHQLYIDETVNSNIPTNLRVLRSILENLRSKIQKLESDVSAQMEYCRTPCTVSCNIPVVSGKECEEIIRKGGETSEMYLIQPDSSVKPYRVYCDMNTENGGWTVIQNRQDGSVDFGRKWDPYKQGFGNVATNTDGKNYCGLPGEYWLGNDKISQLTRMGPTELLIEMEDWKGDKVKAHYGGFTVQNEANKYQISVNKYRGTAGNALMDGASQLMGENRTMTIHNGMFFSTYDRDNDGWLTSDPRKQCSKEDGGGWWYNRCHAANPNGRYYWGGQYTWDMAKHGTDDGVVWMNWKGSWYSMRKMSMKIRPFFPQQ
T1 sequence 3: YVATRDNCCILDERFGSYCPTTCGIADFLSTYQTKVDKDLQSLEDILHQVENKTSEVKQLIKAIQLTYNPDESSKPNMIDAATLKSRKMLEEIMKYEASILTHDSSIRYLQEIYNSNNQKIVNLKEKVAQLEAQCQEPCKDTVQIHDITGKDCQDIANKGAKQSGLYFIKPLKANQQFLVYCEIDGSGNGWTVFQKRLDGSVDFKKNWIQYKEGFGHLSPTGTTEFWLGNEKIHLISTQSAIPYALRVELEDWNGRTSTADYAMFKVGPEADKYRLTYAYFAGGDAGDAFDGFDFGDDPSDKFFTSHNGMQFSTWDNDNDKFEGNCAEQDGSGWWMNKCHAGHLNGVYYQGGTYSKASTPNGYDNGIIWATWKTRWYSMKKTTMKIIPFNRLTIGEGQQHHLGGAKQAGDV
The test is described as follows: solid phase adherence assay, 1 µg Fg per well, absorbance 590 nm.

The target of a further test is T2, bovine fibrinogen (bovine, UniProt P02672 20-615; P02676 1-468; P12799 25-444).
T2 construct: The three chains are general knowledge about fibrinogen; also called bovine Fg
T2 sequence 1: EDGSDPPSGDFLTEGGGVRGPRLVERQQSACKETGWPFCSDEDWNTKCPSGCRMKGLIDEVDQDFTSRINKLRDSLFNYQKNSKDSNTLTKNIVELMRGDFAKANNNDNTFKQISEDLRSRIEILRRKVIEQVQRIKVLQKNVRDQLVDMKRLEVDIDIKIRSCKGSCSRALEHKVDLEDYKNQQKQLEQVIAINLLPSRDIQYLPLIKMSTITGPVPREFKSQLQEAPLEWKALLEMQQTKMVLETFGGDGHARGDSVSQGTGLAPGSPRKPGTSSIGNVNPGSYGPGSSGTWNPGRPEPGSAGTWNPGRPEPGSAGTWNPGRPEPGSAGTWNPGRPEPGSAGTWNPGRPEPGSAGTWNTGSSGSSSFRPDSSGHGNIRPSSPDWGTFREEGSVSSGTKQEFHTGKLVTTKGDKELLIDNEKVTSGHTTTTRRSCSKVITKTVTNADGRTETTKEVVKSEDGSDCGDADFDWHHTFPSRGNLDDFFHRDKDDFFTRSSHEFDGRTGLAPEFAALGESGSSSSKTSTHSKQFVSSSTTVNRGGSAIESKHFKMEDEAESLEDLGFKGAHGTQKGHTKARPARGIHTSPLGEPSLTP
T2 sequence 2: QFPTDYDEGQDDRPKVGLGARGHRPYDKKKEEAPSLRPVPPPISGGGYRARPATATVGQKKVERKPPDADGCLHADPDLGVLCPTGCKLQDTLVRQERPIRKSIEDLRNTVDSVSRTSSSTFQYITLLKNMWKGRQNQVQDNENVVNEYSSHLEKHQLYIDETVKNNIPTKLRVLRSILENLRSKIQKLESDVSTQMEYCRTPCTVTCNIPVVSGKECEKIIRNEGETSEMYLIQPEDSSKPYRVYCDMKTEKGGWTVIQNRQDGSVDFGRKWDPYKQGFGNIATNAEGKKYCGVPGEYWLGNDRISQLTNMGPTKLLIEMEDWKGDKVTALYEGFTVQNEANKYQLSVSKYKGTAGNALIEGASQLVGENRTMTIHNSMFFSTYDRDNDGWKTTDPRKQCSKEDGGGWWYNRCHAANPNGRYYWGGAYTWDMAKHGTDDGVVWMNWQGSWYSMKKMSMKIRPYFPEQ
T2 sequence 3: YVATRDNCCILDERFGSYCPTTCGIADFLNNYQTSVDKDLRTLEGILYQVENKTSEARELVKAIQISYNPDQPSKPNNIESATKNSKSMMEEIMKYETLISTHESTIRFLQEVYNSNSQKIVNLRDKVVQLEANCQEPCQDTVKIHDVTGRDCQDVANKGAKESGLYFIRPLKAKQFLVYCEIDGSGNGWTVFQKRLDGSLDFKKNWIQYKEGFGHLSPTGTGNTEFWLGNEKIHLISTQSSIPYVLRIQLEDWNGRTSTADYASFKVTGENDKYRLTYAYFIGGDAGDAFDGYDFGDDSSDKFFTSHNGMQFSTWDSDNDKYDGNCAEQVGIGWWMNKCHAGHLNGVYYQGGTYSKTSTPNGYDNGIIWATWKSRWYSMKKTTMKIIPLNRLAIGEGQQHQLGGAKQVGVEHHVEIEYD
The description is as above.

B1: SpsD of S. pseudintermedius ED99, full-length, expressed on L. lactis MG1363 (pOri23) (other)
chain: SEVSATTQEHNVETEQTKTEGELTTEVAQQAVSESAPIAENMQKTTSVASENAKEVTASDSTQEVTKTEAKDTATMKDSEIAQPVSEVNKPVTQTAAPVAEPSTANKQTSPRQVQELTAPMDTKVINVENGTDVTSKVKVEKSSITGHQNKDKTYHQSNTVNPHKAERVTLNYDWSFENGIKAGDYFDFQLSDNVDTNGISTIKKVPHIMDSQNSEQIIAYGEINENNRVRYRFMDYVNQKENLKGKLSLNLFIKPDKVQDEGKITVTSQLGKEMTSQEFDIKYIDGVKSPSGITLNGRLDELSKADQSFTHYSIFKPKHNNLTNVTLRGTVSNNAQQNEKNGQVNVYEYIGQGELPQSAYANVNDTKQFNDITKSMKSIKNNSNGYEITFDMNKDNHPYIIVYQGHFNNNAKDFDFSTNATGYQNLNQSEYSYYWPYNYSFNLTWDNGVAFYSNNASGEGNDKPVPPTYGYSPTVNTIQDTHADYPVMTFQQPGTLEETEDSMPITTLTESGEDRGENTSPIIETTEDSQPVEFEEETNHGIQDVTLHADAVDFEEETNHGEQDTVHHSDVVEYDEDTTTGMLTGAISDHTTEEGTMEYTTDGLLIEFDDEMNPNVSGQYDDITTDTIEESSHIDTFTELESEFGQHDGIVTFEEDTIVEKPKTEKGNRVPLVIDLSTPKHNHQFNIQPTDPNIDTSATYRIGNFVWRDEDHNGVQNDGEHGLEGVLVTLKTADGVVLNTTTSDANGHYQFTNVQKGKYIVEFTTPEGYEATSKHTTANTEKDSDGLIANIDVTQDDMSIDAGFFPLENWNPQPEPKNPDDREKPAPEQPDVPQPEPKNPDDREKPAPEQPDVPQPEPKNPDDREKPAPEQPDVPQPEPKNPDDKEKPAPEQPDVPQPEPKNPDDKEKPAPEQPDAPQPKPMLPGEKVKPKPTHPGEAMQTTPQDKSTSQTDEALPKTGESSSQSSALIFGGLLSLLGLGLLRRSSKQNRSSMK
notes: also called L. lactis expressing SpsD; putative MSCRAMM SpsD
For B1, the binding result with human fibrinogen and with bovine fibrinogen was “binds” each time.
